In patent US20220332804A1 (CSL INNOVATION, published 2022):
Residue numbers refer to the chain shown, from its start.

Legend:
Assay in all cases: SPR, KD relative to WT C2;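 further: biacore SPR at 37 °C, anti-C2 mAbs captured on anti-human IgG chips with alanine or serine point mutants of C2 as analyte, KD from 1:1 fit compared with wild-type C2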
human C2 S428A = target: T1, human C2 S428A (human, UniProt P06681 21-752)
T1 sequence: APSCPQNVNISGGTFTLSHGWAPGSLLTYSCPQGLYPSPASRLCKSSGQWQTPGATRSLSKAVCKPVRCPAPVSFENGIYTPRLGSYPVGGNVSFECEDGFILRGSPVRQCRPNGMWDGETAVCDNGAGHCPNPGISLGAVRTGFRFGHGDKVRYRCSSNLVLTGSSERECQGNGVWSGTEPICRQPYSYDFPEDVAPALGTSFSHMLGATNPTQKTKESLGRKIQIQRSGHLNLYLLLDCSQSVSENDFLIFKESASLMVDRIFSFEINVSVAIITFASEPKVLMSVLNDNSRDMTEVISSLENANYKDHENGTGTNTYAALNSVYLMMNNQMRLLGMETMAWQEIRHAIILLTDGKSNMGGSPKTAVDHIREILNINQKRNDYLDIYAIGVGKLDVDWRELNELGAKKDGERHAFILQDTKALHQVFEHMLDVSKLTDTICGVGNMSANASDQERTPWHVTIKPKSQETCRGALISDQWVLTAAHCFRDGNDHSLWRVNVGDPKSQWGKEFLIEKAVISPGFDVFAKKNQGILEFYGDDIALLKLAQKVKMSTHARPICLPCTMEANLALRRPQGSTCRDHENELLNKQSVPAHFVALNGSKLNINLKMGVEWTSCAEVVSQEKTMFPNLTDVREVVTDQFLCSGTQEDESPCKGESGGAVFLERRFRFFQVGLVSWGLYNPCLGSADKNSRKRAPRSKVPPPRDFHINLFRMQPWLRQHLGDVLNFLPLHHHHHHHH

human C2 E433A = target: T2, human C2 E433A (human, UniProt P06681 21-752)
T2 sequence: T1 sequence with A408S, E413A

human C2 T442A = target: T3, human C2 T442A (human, UniProt P06681 21-752)
T3 sequence: T1 sequence with A408S, T422A

human C2 E267A = target: T4, human C2 E267A (human, UniProt P06681 21-752)
T4 sequence: T1 sequence with E247A, A408S

B1: RF16-242 (antibody, human IgG4 S228P, lambda, V domains shown)
VH: EVQLLQSGAEVKKPGESLKISCKGSGYSFTSYWIGWVRQMPGKGLEWMGIIYPGDSDTRYSPSFQGQVTISADKSISTAYLQWSSLKASDTAMYYCARRGHYGDYFDYWGQGTLVTVSS
VL: SYELTQPPSVSVSPGQTARITCSGDALPKKYAYWYHQKSGQAPVLVIYEDRRRPSEIPERFSGSSSGTMATLTITGAQVEDEGVYFCYSRDRAGNQRVFGGGTQLTVLG
notes: pH-dependent anti-C2 antibody from a phage display library
What does the source list for B1?
Fold diff (human C2 S428A): 3 fold; Fold diff (human C2 E433A): 0 fold; Fold diff (human C2 T442A): 3 fold; Fold diff (human C2 E267A): 2 fold
